# The nanobody polyreactivity screen of Harvey et al. (2022)
# Assay: yeast display, Sf9 membrane polyspecificity reagent, FACS + sequencing; frameworks hold sequencing errors
# Outline: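 After 36–48 hours of galactose induction, yeast (Saccharomyces cerevisiae BJ5465) displaying a synthetic nanobody library were stained at 4 °C for 1 hour with 10% biotinylated, detergent-solubilized Sf9 membrane reagent. Streptavidin microbeads enriched the stained cells before FACS sorting into low and high (top ~1%) gates on anti-HA and streptavidin fluorescence. Each clone's polyreactivity label reflects its gate of origin.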
row,Sequence,polyreactivity (PSR sort gate)
1,QVQLVESAGGLVQEGGILRLICADSGRIVYRYAMGWYRQAPGKERELVAAISRRGGSTYYEDSVKGRFTISRDNAKYTVIFQMNSLKAVDTAVYYFARYHWYYRVSKSDSWGQGTQVPVSS,high polyreactivity
2,QVQLVESAGGLVQEGGSLRLSCAASGLTFYGNAMGWYRQAPGKERELVAAISSSGGTTSYADSVKGRFTISRDNAKNTVYLQFNSLKPEDTAVYYCAARPSGGYESTRTRDYWGQGTQVTVSS,low polyreactivity
3,QVQLVESAGGLVQEGGSLRLSCAASGRIFARYAMGWSRQAPGKERELVAAITDSGDNTYYADSVKGRFTISRDNAKNTVYLQMNSLKPEDTAVYYCKAYFLVHYRRLRPYDYWGHGTQVTVSS,low polyreactivity
4,QVQLVESAGRLVKAGGSLRLSCDASGSIFKGNAMGWYRQEPGKERELVAAISRTGGSTYYADSVKGRFTISRDNAKNTVYLQMNSLKPEDTAVYYCAAYSASTYDSWGQGTQVTVSS,high polyreactivity
5,QVQLVESARGLVQAGGCLRLSCAASGSTFHQNAMGWSRQAPGKERELVAAITSGGSTYYADSVKGRFTISRDNAKNTGYLQMNSLKPEDTAVYYCNALTHVRSKRWRFRSEHDYWGQGTQVTVSS,high polyreactivity
6,QVQLVESAVGLVQAGGRLRLSCAASGRIFVFNAMGWYMQAPGKERELVAAITASSTRTYYADSVKGRFTISRDNAKNTVYLQMNSLNPEDPAVYYCARDIRQYILYGRVDYWGQGTQVTVSS,low polyreactivity
7,QVQLVESAVGLVQAGGSLRLSCAASGRIFYFNAMGWYRQAPGKERELVAAISSSGTTYYADSVKGRFTISRDNAKNTVYLQMNSLKPEDTAVYYCAAGYYGHDPRNRYRYNYWGQGTQVTVSS,high polyreactivity
8,QVQLVESAVGLVQAGGSLRLSCDASGRSYYTYAMGWYRQAPGKERELVATITDGGSTYYAESVKGRFTISRDNAKNTVYLQMNSLKPEDTAVYYCAADAYQWYDWGQGTQVTVSS,low polyreactivity
9,QVQLVESCGALVQASGTLRLSCAASGSIFGYNTMRWYRQAPGKERELVAAIYYSGGRTYYADSVKGRFTISRDNAKNTVYLQMNSLKPEDTAVYNCAARKGYRYYYRGQGTQVTVSS,high polyreactivity
10,QVQLVESCGCLVQAVGSLRLSCAASRFIFRLYAMVWYRQAPGKERELVAAISSGTSTYYADSVKVRFTISRDNAKNTVYLQMNSLKPEETEVYYCAAVPRVNWSRYVYFWYDYWGEGTQVTVSS,high polyreactivity
11,QVQLVESCGGLDQAGGSLRLTCAASGINFWYNTMGWYRQAPRKERELVAAITYGGGSTYYADSVKGRFTISRDNAKNSVYLQMYSMKPVDTAVYYCAVRNWHLIKYLHGYSRYGYWGQGTQVTVSS,low polyreactivity
12,QVQLVESCGGLVQAGGSHRLSCAASGFTFTRNALGWYRQAPGKERELVAAISIRGSSTYYADSVKGRFTISRDNAKNTVYLQMNILKQEDTAVYYCSAPTFSLHGTYGYWGQGTQVTVSS,high polyreactivity
13,QVQLVESCGGLVQAGGSLRISCAASGRIFRPYAMGWYRQAPGPEREFVAAITSGSNTYYADSVKWRFTISRDNAKNTVYLQMNSLKPEDTAFYYCAAVQRKRAPAETAYGYWGQGPQVTVSS,high polyreactivity
14,QVQLVESCGGLVQAGGSLRLSCAASGFIFLPYVMGWYRQAPGKERELVAAISGGGGITYYADSVKGRFTISRDNAKNTVYLQMNSLKPEDTAVYYCAAERPVAPYDYWGQGTQVTVSS,low polyreactivity
15,QVQLVESCGGLVQAGGSLRLSCAASGFNIYRNAMGWYRKAPGKERELVAAISTSVGSTHYADSVKGRFTISRDNAMNTVYLQMYSLKPEDTAVYYCAKRRSIRDEFGYWGQGTQVTVSS,high polyreactivity
16,QVQLVESCGGLVQAGGSLRLSCAASGIIFWWYTMGWYRQAPGKERELVAAISRGGNTNYADSVKGRFTISRDNAKNTVYLQMNSLKTEDTAFYYCAADRHYRFWQYDYWGQGTQVTVSS,high polyreactivity
17,QVQLVESCGGLVQAGGSLRLSCAASGRIFKYNPMGWYRQAPGQERELVASITASGGRTYYADSVKGRFTISRDIAKNTVYLQMNSLKTEDTAVYYCAAGRPFSKYGYWRQGTQVTVSS,high polyreactivity
